In patent publication US20150203575A1 (Genentech, published 2015):

Tests used:
Test in all cases: cDNA expression library screen with PILRα-AP supernatant on COS7 transfectants; positive clones further analysed by FACS
ETBR expressed on cells = target: T1, ETBR expressed on cells (human, UniProt P24530 27-442)
T1 construct: Clone of the Origene human cDNA library; also called Endothelin receptor type B
T1 sequence: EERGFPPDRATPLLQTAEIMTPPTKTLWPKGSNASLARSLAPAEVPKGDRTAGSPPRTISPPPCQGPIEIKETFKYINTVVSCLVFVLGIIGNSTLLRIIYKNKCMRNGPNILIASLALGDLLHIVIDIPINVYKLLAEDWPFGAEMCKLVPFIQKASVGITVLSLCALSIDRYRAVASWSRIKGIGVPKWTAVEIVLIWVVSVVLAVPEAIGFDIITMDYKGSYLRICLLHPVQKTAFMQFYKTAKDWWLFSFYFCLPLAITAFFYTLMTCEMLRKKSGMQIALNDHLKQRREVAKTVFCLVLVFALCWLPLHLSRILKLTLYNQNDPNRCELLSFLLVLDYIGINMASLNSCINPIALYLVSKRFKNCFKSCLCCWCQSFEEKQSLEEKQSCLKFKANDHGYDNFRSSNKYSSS
Experimental: (§1) COS7 cells were plated in a 24-well format and transfected with 10 ul of Origene library DNA (Origene, human DNA library containing 20 k genes) per well with Fugene 6 Reagent. Two days later, cells were incubated with human or mouse PILRα-Ap supernatants for 45 min at room temperature (RT). Then cells were fixed with 4% PFA for 15 min at RT. After removing fixation buffer, cells were blocked with 100 mM Glycine in HBS (20 mM Hepes, PH7.2, 150 mM NaCl) for 15 min at RT. Cells were then rinsed and incubated in HBS for 90 min at 65° C. HBS was removed and Western Blue Substrate (Promega) was added and color was developed for 30 min to 1 hr.

[1] = target: T2, CLEC4G expressed on cells (human, UniProt Q6UXB4 1-293)
T2 construct: Clone of the Origene human cDNA library; also called C type lectin superfamily 4 member G
T2 sequence: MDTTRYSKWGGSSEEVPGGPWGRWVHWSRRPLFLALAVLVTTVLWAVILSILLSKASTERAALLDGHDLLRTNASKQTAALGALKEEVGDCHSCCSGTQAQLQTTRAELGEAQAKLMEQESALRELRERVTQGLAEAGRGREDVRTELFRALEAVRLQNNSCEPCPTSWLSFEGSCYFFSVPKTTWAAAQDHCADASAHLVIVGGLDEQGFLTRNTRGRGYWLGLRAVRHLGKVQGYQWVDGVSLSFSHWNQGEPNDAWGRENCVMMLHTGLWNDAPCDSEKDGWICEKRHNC
Experimental: as §1

APLP1 expressed on cells = target: T3, APLP1 expressed on cells (human, UniProt P51693 39-650)
T3 construct: Clone of the Origene human cDNA library; also called Amyloid beta precursor like protein 1
T3 sequence: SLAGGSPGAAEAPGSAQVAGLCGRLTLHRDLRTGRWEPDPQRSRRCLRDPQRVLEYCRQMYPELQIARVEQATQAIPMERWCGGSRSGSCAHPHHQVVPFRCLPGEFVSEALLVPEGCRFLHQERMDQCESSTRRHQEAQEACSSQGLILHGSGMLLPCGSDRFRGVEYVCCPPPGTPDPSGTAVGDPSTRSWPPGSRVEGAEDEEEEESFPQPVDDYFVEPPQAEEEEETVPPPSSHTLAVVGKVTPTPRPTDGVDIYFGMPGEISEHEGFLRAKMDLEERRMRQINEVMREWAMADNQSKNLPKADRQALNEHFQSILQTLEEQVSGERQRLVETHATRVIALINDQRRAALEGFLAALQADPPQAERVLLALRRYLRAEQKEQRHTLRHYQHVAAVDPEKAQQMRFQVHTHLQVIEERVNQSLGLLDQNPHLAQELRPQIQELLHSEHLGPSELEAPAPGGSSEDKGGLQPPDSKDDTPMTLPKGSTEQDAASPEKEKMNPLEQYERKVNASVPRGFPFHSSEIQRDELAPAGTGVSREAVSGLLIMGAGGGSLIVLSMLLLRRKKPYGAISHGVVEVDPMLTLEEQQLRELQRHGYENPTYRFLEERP
Experimental: as §1

PTPRN expressed on cells = target: T4, PTPRN expressed on cells (human, UniProt Q16849 35-979)
T4 construct: Clone of the Origene human cDNA library; also called Protein tyrosine phosphatase receptor-type N
T4 sequence: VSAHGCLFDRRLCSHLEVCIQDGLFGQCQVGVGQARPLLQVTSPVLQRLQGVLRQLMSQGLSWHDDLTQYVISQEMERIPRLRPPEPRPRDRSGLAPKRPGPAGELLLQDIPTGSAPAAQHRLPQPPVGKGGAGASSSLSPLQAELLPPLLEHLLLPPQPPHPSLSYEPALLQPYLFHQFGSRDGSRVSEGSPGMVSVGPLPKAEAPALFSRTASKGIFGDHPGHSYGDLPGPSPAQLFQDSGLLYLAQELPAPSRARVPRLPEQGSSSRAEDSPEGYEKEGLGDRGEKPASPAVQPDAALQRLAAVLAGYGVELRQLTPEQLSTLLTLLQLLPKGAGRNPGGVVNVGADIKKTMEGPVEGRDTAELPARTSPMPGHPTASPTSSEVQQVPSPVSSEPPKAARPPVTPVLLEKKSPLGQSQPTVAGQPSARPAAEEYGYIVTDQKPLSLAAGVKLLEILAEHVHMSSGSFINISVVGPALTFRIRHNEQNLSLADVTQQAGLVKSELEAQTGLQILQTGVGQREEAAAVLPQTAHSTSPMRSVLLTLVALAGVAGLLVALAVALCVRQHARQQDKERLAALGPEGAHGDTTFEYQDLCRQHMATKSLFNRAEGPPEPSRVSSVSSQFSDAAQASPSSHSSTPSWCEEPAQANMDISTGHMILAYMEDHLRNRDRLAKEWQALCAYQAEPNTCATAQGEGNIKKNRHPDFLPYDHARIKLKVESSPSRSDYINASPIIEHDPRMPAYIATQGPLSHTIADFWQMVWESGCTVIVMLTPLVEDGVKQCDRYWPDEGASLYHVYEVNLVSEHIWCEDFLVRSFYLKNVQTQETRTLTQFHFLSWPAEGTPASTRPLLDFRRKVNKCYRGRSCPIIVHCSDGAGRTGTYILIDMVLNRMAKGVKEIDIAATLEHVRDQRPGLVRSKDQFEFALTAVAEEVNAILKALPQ
Experimental: as §1

Measured: binding result

B1: hPILRα-AP (other)
chain: QPSGSTGSGPSYLYGVTQPKHLSASMGGSVEIPFSFYYPWELATAPDVRISWRRGHFHRQSFYSTRPPSIHKDYVNRLFLNWTEGQKSGFLRISNLQKQDQSVYFCRVELDTRSSGRQQWQSIEGTKLSITQAVTTTTQRPSSMTTTWRLSSTTTTTGLRVTQGKRRSDSWHISLET
notes: Used as culture supernatant; also called human PILRα-AP; Alkaline phosphatase (AP)-tagged PILRα construct; not shown: C-terminal alkaline phosphatase (AP) tag
binds: all assays above
